33 molecules from patent publication US20240279318A1 can be followed below.

The labels stand for the following.
B1: AS170036 VL1VH1-VLH98F (scFv)
scFv: QSALTQPRSVSGSPGQSVTISCAGTSSDVGSENYVSWYQQHPGKAPKLMIYQVNKRASGVPDRFSGSKSGNTASLTISGLQAEDEADYYCASYRSSDFNIVFGGGTKLTVLGGGGSGGGGSGGGGSEVQLVESGGGLVQPGGSLRLSCAASGFTFSSYAMSWVRQAPGKGLEWVSTINSGTGSPYYADSVKGRFTISRDNSKNTLYLQMNSLRAEDTAVYYCAKNFFDGSWFLGPPAMDYWGQGTLVTVSSHHHHHH
B2: AS170036 VL1VH1-VHG108S (scFv)
scFv: B1 scFv with F98H, G234S
B3: AS170036 VL1VH1-VHG56N (scFv)
scFv: B1 scFv with F98H, G182N
B4: AS170036 VL1VH1-VLH98Q (scFv)
scFv: B1 scFv with F98Q
B5: AS170036 VL1VH1-VHG56Y (scFv)
scFv: B1 scFv with F98H, G182Y
B6: AS170036 VL1VH1-VHS57K (scFv)
scFv: B1 scFv with F98H, S183K
B7: AS170036 VL1VH1-VHG108D (scFv)
scFv: B1 scFv with F98H, G234D
B8: AS170036 VL1VH1-VHG108A (scFv)
scFv: B1 scFv with F98H, G234A
B9: AS170036 VL1VH1-VHS57H (scFv)
scFv: B1 scFv with F98H, S183H
B10: AS170036 VL1VH1-VHS57M (scFv)
scFv: B1 scFv with F98H, S183M
B11: AS170036 VL1VH1-VLH98I (scFv)
scFv: B1 scFv with F98I
B12: AS167821A-AS167821A-TCE-KIH (bispecific antibody, human IgG1, kappa, L234A L235A)
heavy: EVQLVESGGGLVQPGRSLRLSCAASGFTFDDYAMHWVRQAPGKGLEWVSGISWNSGSIGYADSVKGRFTISRDNAKNSLYLQMNSLRAEDTALYYCAKDSRGYGDYRLGGAYWGQGTLVTVSSASTKGPSVFPLAPSSKSTSGGTAALGCLVKDYFPEPVTVSWNSGALTSGVHTFPAVLQSSGLYSLSSVVTVPSSSLGTQTYICNVNHKPSDTKVDKKVEPKSCDKTHTCPPCPAPEAAGGPSVFLFPPKPKDTLMISRTPEVTCVVVDVSHEDPEVKFNWYVDGVEVHNAKTKPREEQYNSTYRVVSVLTVLHQDWLNGKEYKCKVSNKALPAPIEKTISKAKGQPREPQVYTLPPSREEMTKNQVSLWCLVKGFYPSDIAVEWESNGQPENNYKTTPPVLDSDGSFFLYSKLTVDKSRWQQGNVFSCSVMHEALHNHYTQKSLSLSPGK
light: not shown
chain: QVRLVESGGGSVQAGGSLRLSCAASGRTYSTYAMGWFRQAPGKEREGVATIYIGSGRTYYVDSVKGRFTISQDNAKNTLYLQMNNLKPEDTAMYYCTADVDPYESSWSRGLGYWGQGTQVTVSSGGGGSGGGGSGGGGSGGGGSGGGGSQVRLVESGGGSVQAGGSLRLSCAASGRTYSTYAMGWFRQAPGKEREGVATIYIGSGRTYYVDSVKGRFTISQDNAKNTLYLQMNNLKPEDTAMYYCTADVDPYESSWSRGLGYWGQGTQVTVSSEPKSSDKTHTCPPCPAPEAAGGPSVFLFPPKPKDTLMISRTPEVTCVVVDVSHEDPEVKFNWYVDGVEVHNAKTKPREEQYNSTYRVVSVLTVLHQDWLNGKEYKCKVSNKALPAPIEKTISKAKGQPREPQVYTLPPSREEMTKNQVSLSCAVKGFYPSDIAVEWESNGQPENNYKTTPPVLDSDGSFFLVSKLTVDKSRWQQGNVFSCSVMHEALHNRYTQKSLSLSPGK
B13: AS170036 VL1VH1 (scFv)
scFv: B1 scFv with F98H
B14: 75-AS170036 VL1VH1-57K98Q108S (scFv)
scFv: B1 scFv with F98Q, S183K, G234S
B15: 40-AS170036 VL1VH1-56Y98F108A (scFv)
scFv: B1 scFv with G182Y, G234A
B16: 48-AS170036 VL1VH1-56Y98Q108S (scFv)
scFv: B1 scFv with F98Q, G182Y, G234S
B17: 16-AS170036 VL1VH1-56Y108A (scFv)
scFv: B1 scFv with F98H, G182Y, G234A
B18: 10-AS170036 VL1VH1-57K98F (scFv)
scFv: B1 scFv with S183K
B19: 15-AS170036 VL1VH1-57M98Q (scFv)
scFv: B1 scFv with F98Q, S183M
B20: 67-AS170036 VL1VH1-57K98F108A (scFv)
scFv: B1 scFv with S183K, G234A
B21: 27-AS170036 VL1VH1-57K108S (scFv)
scFv: B1 scFv with F98H, S183K, G234S
B22: 45-AS170036 VL1VH1-56Y98I108S (scFv)
scFv: B1 scFv with F98I, G182Y, G234S
B23: 70-AS170036 VL1VH1-57K98I108A (scFv)
scFv: B1 scFv with F98I, S183K, G234A
B24: 34-AS170036 VL1VH1-98I108A (scFv)
scFv: B1 scFv with F98I, G234A
B25: 25-AS170036 VL1VH1-57K108A (scFv)
scFv: B1 scFv with F98H, S183K, G234A
B26: 49-AS170036 VL1VH1-56N98F108A (scFv)
scFv: B1 scFv with G182N, G234A
B27: 05-AS170036 VL1VH1-56N98I (scFv)
scFv: B1 scFv with F98I, G182N
B28: 82-AS170036 VL1VH1-57M98Q108A (scFv)
scFv: B1 scFv with F98Q, S183M, G234A
B29: 42-AS170036 VL1VH1-56Y98F108S (scFv)
scFv: B1 scFv with G182Y, G234S
B30: 03-AS170036 VL1VH1-56Y98Q (scFv)
scFv: B1 scFv with F98Q, G182Y
B31: 19-AS170036 VL1VH1-56N108A (scFv)
scFv: B1 scFv with F98H, G182N, G234A
B32: 43-AS170036 VL1VH1-56Y98I108A (scFv)
scFv: B1 scFv with F98I, G182Y, G234A
B33: 22-AS170036 VL1VH1-57H108A (scFv)
scFv: B1 scFv with F98H, S183H, G234A

Substitutions are numbered along the chain they refer to. Some results are limits rather than exact numbers.

One assay has as its target AFP158 homologous peptides/HLA-A*02:01 complexes. Nature of the assay: SPR, crude scFv captured, complexes as analyte.
The molecule B1 came in with an SPR response below 3.5 RU.
Still for that read-out and setting: with B2 the figure was below 3.5 RU; with B3, below 3.5 RU.
The same measure, in the same setting: with B4 the figure was below 3.5 RU.
Still for that read-out and setting: with B5 the figure was below 3.5 RU.
As to B6, the SPR response is below 3.5 RU.
In the case of B7, the SPR response is below 3.5 RU.
Take B8: the SPR response was below 3.5 RU.
B9 had an SPR response below 3.5 RU.
The same measure, in the same setting: with B10 the figure was below 3.5 RU.
On the same count and under the same terms, with B11 the figure was below 3.5 RU.

The target of the next assay is other peptide-loaded T2 cells. Nature of the assay: cell-based or functional assay.
B12 registered a T cell redirected cell killing (LDH), 1 nM BsAb below 20%.

The next assay concerns the target group 2: CDC14A, PTP4A1, BRCA2 and RCL1 homologous peptide/HLA-A*02:01 complexes (mixed). Nature of the assay: SPR (BIAcore T200), crude scFv captured, mixed complexes flowed over.
B13 gave an SPR binding level of 0.4 RU.
The same measure, in the same setting: with B14 the figure was 14.3 RU.
Turning to B15, the SPR binding level was 79.2 RU.
Molecule B16 came in with an SPR binding level of 56.6 RU.
On the same count and under the same terms, with B17 the figure was 32.6 RU.
Molecule B18 had an SPR binding level of 4 RU.
Still for that read-out and setting: with B19 the figure was 2.8 RU; with B20, 22.3 RU.
As to B21, the SPR binding level was 3.3 RU.
The same measure, in the same setting: with B22 the figure was 64.7 RU; with B23, 21.9 RU.
The same measure, in the same setting: with B24 the figure was 11.2 RU; with B25, 6.3 RU.
Same read-out and setting: with B26 the figure was 21.1 RU.
As for B27, the SPR binding level came to 7 RU.
As to B28, the SPR binding level was determined as 16.6 RU.
On the same count and under the same terms, with B29 the figure was 39.3 RU.
Same read-out and setting: with B30 the figure was 27.2 RU.
B31 came in with an SPR binding level of 7.5 RU.
With B32, the SPR binding level was determined as 148 RU.
On to B33, for which the SPR binding level came to 10 RU.

The target in a further assay is group 3: OR1I1, OR51B6, OR6C1, ATG9A, RP1 and NR2E1 homologous peptide/HLA-A*02:01 complexes (mixed). The description is as above.
With B13, the SPR binding level stood at 0.2 RU.
B14: the SPR binding level amounted to 3.9 RU.
Same read-out and setting: with B15 the figure was 9.5 RU; with B16, 6.1 RU; with B17, 3.2 RU.
B18: the SPR binding level is 1 RU.
The same measure, in the same setting: with B19 the figure was 1.2 RU; with B20, 6.3 RU.
B21 showed an SPR binding level of 1.3 RU.
Regarding B22, the SPR binding level is 6 RU.
Molecule B23 registered an SPR binding level of 5.8 RU.
The molecule B24 displayed an SPR binding level of 3.6 RU.
Consider B25, for which the SPR binding level is 2 RU.
On the same count and under the same terms, with B26 the figure was 6.5 RU; with B27, 2 RU; with B28, 4.7 RU.
Same read-out and setting: with B29 the figure was 4.4 RU; with B30, 2.4 RU; with B31, 2.6 RU.
On the same count and under the same terms, with B32 the figure was 17.3 RU; with B33, 5.7 RU.

For the next assay, the target named is group 1: ZNF566 and ARNTL homologous peptide/HLA-A*02:01 complexes (mixed). The description is as above.
Turning to B13, the SPR binding level worked out at 0.8 RU.
The same measure, in the same setting: with B14 the figure was 22.6 RU; with B15, 13.8 RU.
Still for that read-out and setting: with B16 the figure was 9.3 RU.
With B17, the SPR binding level came out at 4.5 RU.
The same measure, in the same setting: with B18 the figure was 6.8 RU; with B19, 5.1 RU.
With B20, the SPR binding level amounted to 35.8 RU.
B21 displayed an SPR binding level of 6.1 RU.
Still for that read-out and setting: with B22 the figure was 9 RU; with B23, 33.7 RU.
The same measure, in the same setting: with B24 the figure was 10.2 RU; with B25, 10.9 RU; with B26, 15.3 RU.
Same read-out and setting: with B27 the figure was 4.4 RU; with B28, 28.2 RU; with B29, 6.3 RU.
In turn, B30 gave an SPR binding level of 4 RU.
Same read-out and setting: with B31 the figure was 5 RU.
Still for that read-out and setting: with B32 the figure was 25.7 RU; with B33, 26.6 RU.
